Measurements reported in US20160083466A1 (Regeneron, published 2016).

B1: mouse IL-25 expressed with a C-terminal myc-myc-hexahistidine tag (ligand)
chain: VSLRIQEGCSHLPSCCPSKEQEPPEEWLKWSSASVSPPEPLSHTHHAESCRASKDGPLNSRAISPWSYELDRDLNRVPQDLYHARCLCPHCVSLQTGSHMDPLGNSVPLYHNQTVFYRRPCHGEEGTHRRYCLERRLYRVSLACVCVRPRVMAEQKLISEEDLGGEQKLISEEDLHHHHHH
B2: monkey IL-25 expressed with a C-terminal myc-myc-hexahistidine tag (ligand)
chain: YSHWPSCCPSKGYPSEELLRWSTVPVPPLKPASLDFHSVSCRASEDGPLNSRAISPWRYELDRDLNRLPQDLYHARCLCPHCVSLQTGSHMDPRGNSELLYHNQTVFYRRPCHGKKGNHKGYCLERRLYRVSLACVCVRPRVMGEQKLISEEDLGGEQKLISEEDLHHHHHH
B3: human IL-25 expressed with a C-terminal myc-myc-hexahistidine tag (ligand)
chain: YSHWPSCCPSKGQDTSEELLRWSTVPVPPLEPARPNRHPESCRASEDGPLNSRAISPWRYELDRDLNRLPQDLYHARCLCPHCVSLQTGSHMDPRGNSELLYHNQTVFYRRPCHGEKGTHKGYCLERRLYRVSLACVCVRPRVMGEQKLISEEDLGGEQKLISEEDLHHHHHH

Columns and labels:
[1] = molecular target: B3; experiment: cell-based or functional assay
[2] = molecular target: B2; experiment: cell-based or functional assay
[3] = molecular target: B1; experiment: cell-based or functional assay
[4] = molecular target: T1, rat IL-25 expressed with a C-terminal myc-myc-hexahistidine tag (rat); experiment: SPR Biacore, antibody captured, 25C;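 also: purified anti-IL-25 antibodies were tested by real-time surface plasmon resonance on a Biacore 4000, with rate constants obtained from sensorgram fits to a 1:1 binding model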
T1 construct: also called Rat IL-25-MMH
T1 chain: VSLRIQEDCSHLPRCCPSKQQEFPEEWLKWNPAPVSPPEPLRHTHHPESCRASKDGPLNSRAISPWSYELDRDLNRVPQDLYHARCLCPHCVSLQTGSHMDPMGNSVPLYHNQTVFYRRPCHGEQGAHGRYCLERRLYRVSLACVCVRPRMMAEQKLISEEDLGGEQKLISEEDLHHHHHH

[5] = molecular target: B1; experiment: SPR Biacore, antibody captured, 25C
Method: (§1) Equilibrium dissociation constants (KD values) for IL-25 binding to purified anti-IL-25 antibodies were determined using a real-time surface plasmon resonance biosensor assay on a Biacore 4000 instrument (GE Healthcare). […] All the IL-25 reagents were expressed with a C-terminal myc-myc-hexahistidine tag (referred to herein as “IL-25-MMH”). […] Kinetic association (kₐ) and dissociation (kd) rate constants were determined by fitting the real-time sensorgrams to a 1:1 binding model using Scrubber 2.0c curve fitting software.

[6] = molecular target: B3; experiment: BLI Octet, hIL-25-MMH captured on anti-Penta-His sensor, 25C
Method: Binding competition between anti-IL-25 monoclonal antibodies was determined using a real time, label-free bio-layer interferometry assay on an Octet QK384 biosensor (Pall ForteBio Corp.).
The biosensors were washed in HBST kinetics buffer in between every step of the experiment. The real-time binding response was monitored during the course of the experiment and the binding response at the end of every step was recorded.

[7] = molecular target: B2; experiment: SPR Biacore, antibody captured, 37C;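 as to 100 nM Monkey IL-25-MMH Bound (RU): biacore 4000 surface plasmon resonance biosensor measuring binding of IL-25-MMH to purified anti-IL-25 antibodies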;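 as to 100 nM Mouse IL-25-MMH Bound (RU): Real-time sensorgrams of IL-25-MMH binding to purified anti-IL-25 antibodies, rate constants obtained by fitting a 1:1 binding model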
Method: as §1

[8] = molecular target: B1; experiment: SPR Biacore, antibody captured, 37C;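 as to 100 nM Monkey IL-25-MMH Bound (RU): biacore 4000 surface plasmon resonance biosensor measuring binding of IL-25-MMH to purified anti-IL-25 antibodies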;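 as to 100 nM Mouse IL-25-MMH Bound (RU): Real-time sensorgrams of IL-25-MMH binding to purified anti-IL-25 antibodies, rate constants obtained by fitting a 1:1 binding model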
[9] = molecular target: B3; experiment: cell-based or functional assay
[10] = molecular target: T1, rat IL-25 expressed with a C-terminal …; experiment: SPR Biacore, antibody captured, 37C;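 as to 100 nM Monkey IL-25-MMH Bound (RU): biacore 4000 surface plasmon resonance biosensor measuring binding of IL-25-MMH to purified anti-IL-25 antibodies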;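 as to 100 nM Mouse IL-25-MMH Bound (RU): Real-time sensorgrams of IL-25-MMH binding to purified anti-IL-25 antibodies, rate constants obtained by fitting a 1:1 binding model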
[11] = molecular target: B3; experiment: competition ELISA, 2 nM hIL-25-MMH binding to coated hIL-17RB-hFc; (*) below theoretical bottom of the assay
Method: (§2) Data analysis was performed using a sigmoidal dose-response model within Prism™ software (GraphPad). […] The absorbance values of the wells containing the highest concentration for each antibody were used to determine the percent maximum blockade.

[12] = molecular target: B3; experiment: competition ELISA, 2 nM hIL-25-MMH binding to coated hIL-17RB-hFc
Method: as §2

[13] = molecular target: T2, human IL-25 receptor (IL-17RA/IL-17RB) on HEK293/NFκB-luc/hIL17RA/hIL17RB/hAct1 cells (human, UniProt Q96F46 33-866; Q9NRM6 18-502); experiment: cell-based or functional assay
T2 sequence (looked up) 1: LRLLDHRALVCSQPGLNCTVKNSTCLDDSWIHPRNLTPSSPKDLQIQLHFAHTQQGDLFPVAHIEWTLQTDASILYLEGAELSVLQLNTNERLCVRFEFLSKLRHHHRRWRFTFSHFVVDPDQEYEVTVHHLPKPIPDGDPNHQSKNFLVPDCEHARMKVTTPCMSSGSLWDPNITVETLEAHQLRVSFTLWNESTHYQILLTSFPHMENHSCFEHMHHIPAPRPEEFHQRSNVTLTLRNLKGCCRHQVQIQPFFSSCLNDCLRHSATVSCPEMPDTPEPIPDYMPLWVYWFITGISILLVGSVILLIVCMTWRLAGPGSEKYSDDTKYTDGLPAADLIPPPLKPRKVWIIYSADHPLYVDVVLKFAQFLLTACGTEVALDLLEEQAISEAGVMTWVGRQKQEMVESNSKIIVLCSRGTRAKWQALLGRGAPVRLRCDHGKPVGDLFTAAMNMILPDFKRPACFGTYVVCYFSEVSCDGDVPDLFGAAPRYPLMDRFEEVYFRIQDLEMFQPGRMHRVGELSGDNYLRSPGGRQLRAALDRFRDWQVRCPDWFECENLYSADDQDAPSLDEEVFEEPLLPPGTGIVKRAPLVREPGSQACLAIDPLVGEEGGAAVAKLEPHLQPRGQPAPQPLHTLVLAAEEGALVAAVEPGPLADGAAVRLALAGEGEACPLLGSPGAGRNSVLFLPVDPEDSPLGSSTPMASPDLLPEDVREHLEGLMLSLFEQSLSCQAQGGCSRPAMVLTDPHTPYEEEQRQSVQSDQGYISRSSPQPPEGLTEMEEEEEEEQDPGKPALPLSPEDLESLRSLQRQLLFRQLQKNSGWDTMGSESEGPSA
T2 sequence (looked up) 2: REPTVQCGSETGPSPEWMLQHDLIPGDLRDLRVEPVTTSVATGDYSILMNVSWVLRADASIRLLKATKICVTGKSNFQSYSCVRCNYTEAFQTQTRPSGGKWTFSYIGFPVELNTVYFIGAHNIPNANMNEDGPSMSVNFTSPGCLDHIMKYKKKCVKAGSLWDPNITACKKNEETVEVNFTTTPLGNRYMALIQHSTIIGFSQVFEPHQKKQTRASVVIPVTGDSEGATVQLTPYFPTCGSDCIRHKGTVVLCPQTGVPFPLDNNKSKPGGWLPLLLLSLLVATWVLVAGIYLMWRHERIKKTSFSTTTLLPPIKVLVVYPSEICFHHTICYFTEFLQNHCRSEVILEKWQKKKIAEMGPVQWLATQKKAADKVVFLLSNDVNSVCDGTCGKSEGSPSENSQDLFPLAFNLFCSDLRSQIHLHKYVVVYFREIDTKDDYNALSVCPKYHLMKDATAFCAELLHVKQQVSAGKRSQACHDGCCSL

IC50, luciferase reporter cells, 5 pM hIL-25-MMH [1] | IC50, luciferase reporter cells, 12 pM MfIL-25-MMH [2] | IC50, luciferase reporter cells, 10 pM mIL-25-MMH [3] | 100 nM Rat IL-25-MMH Bound (RU) [4] | Kd [4] | koff [4] | kon [4] | t½ [4] | 100 nM Mouse IL-25-MMH Bound (RU) [5] | Kd [5] | koff [5] | kon [5] | t½ [5] | 50 ug/mL mAb-1 Binding (nm) [6] | 100 nM Monkey IL-25-MMH Bound (RU) [7] | Kd [7] | koff [7] | kon [7] | t½ [7] | 100 nM Mouse IL-25-MMH Bound (RU) [8] | other results | Binder
4.6e-10 M | 2.1e-10 M | 8.8e-10 M | 45 RU | 0.341 nM | 8.81e-05 s⁻¹ | 259000 M⁻¹ s⁻¹ | 2.18 h | 40 RU | 0.57 nM | 9.89e-05 s⁻¹ | 174000 M⁻¹ s⁻¹ | 1.95 h | 1.07 nm | 64 RU | 0.104 nM | 5.45e-05 s⁻¹ | 524000 M⁻¹ s⁻¹ | 3.53 h | 51 RU | Kd [8]: 0.243 nM; koff [8]: 8.97e-05 s⁻¹; kon [8]: 369000 M⁻¹ s⁻¹; t½ [8]: 2.15 h; IC50 values of antibodies for blocking IL-5 release from Donor #727058-059 [9]: 0.172 nM; IC50 values of antibodies for blocking IL-5 release from Donor #727060 [9]: 0.13 nM; 100 nM Rat IL-25-MMH Bound (RU) [10]: 53 RU; Kd [10]: 0.238 nM; koff [10]: 0.000107 s⁻¹; kon [10]: 450000 M⁻¹ s⁻¹; t½ [10]: 1.8 h; IC50 [11]: 0.65 nM; % Maximum blocking of 200 nM antibody [12]: 89% | H4H10876P (antibody, human IgG4, V domains shown, H4H prefix = human IgG4 Fc) VH: QVQLVQSGAEVKKPGASVKVSCKASEYTFSNYGISWVRQAPGQGLEWLGWIGAYSGFTKYAQKVQDRITMTTDASTTTAYMELRNLRSDDTAVYYCARVGTGTDSYFDFWGQGTLVTVSS VL: DIQMTQSPSSLSASVGDRVTITCRASQNINSHLNWYQQKPGKAPKLLIYTASSLQSGVPLRFSGSGSGTDFTLTISSLQPEDFGIYICQQTYITPLTFGGGTKVEIK
 |  |  |  |  |  |  |  |  |  |  |  |  |  |  |  |  |  |  |  | EC50, NFκB-luciferase activation of HEK293/NFκB-luc/hIL17RA/hIL17RB/hAct1 cells [13]: 0.0084 nM | B1
 |  |  |  |  |  |  |  |  |  |  |  |  |  |  |  |  |  |  |  | EC50, NFκB-luciferase activation of HEK293/NFκB-luc/hIL17RA/hIL17RB/hAct1 cells [13]: 0.019 nM | B2
 |  |  |  |  |  |  |  |  |  |  |  |  |  |  |  |  |  |  |  | EC50, NFκB-luciferase activation of HEK293/NFκB-luc/hIL17RA/hIL17RB/hAct1 cells (first assay day) [13]: 0.0029 nM; EC50, NFκB-luciferase activation of HEK293/NFκB-luc/hIL17RA/hIL17RB/hAct1 cells (second assay day) [13]: 0.016 nM | B3
5.1e-10 M | 2.1e-10 M | 6.8e-10 M | 45 RU | 0.81 nM | 0.000135 s⁻¹ | 167000 M⁻¹ s⁻¹ | 1.42 h | 43 RU | 1.17 nM | 0.000145 s⁻¹ | 124000 M⁻¹ s⁻¹ | 1.33 h | 1.59 nm | 59 RU | 0.135 nM | 9.01e-05 s⁻¹ | 668000 M⁻¹ s⁻¹ | 2.13 h | 47 RU | Kd [8]: 0.441 nM; koff [8]: 0.000178 s⁻¹; kon [8]: 403000 M⁻¹ s⁻¹; t½ [8]: 1.08 h; 100 nM Rat IL-25-MMH Bound (RU) [10]: 49 RU; Kd [10]: 0.377 nM; koff [10]: 0.000181 s⁻¹; kon [10]: 481000 M⁻¹ s⁻¹; t½ [10]: 1.07 h; IC50 [11]: 0.53 nM; % Maximum blocking of 200 nM antibody [12]: 86% | H4H10905P (antibody, human IgG4, V domains shown, H4H prefix = human IgG4 Fc) VH: QVQLVQSGAEVKKPGTSVKVSCKASGYTFTNYGISWVRQAPGQGLEWLGWISAYNDNTDYAQKLQARVTMTTDTFTSTAYMDLRSLRSDDTAVYYCARVPITGTTSSFDFWGQGTLVTVSS VL: DIQMTQSPSSLSASVGDRVTISCRASQTIYSYLNWFQQKPGKAPKLLIYDASSLQSGVPSRFSGSGSGTHFTLTISSLQPEDFATYFCQQTYSTPLTFGGGTKVEIK
3.2e-10 M | 8.8e-11 M | 6.7e-10 M | 37 RU | 0.132 nM | 7.23e-05 s⁻¹ | 548000 M⁻¹ s⁻¹ | 2.67 h | 30 RU | 0.918 nM | 0.000111 s⁻¹ | 121000 M⁻¹ s⁻¹ | 1.73 h | 1.12 nm | 54 RU | 0.0546 nM | 7.4e-05 s⁻¹ | 1.35e+06 M⁻¹ s⁻¹ | 2.6 h | 41 RU | Kd [8]: 0.258 nM; koff [8]: 8.29e-05 s⁻¹; kon [8]: 322000 M⁻¹ s⁻¹; t½ [8]: 2.32 h; IC50 values of antibodies for blocking IL-5 release from Donor #727058-059 [9]: 0.118 nM; IC50 values of antibodies for blocking IL-5 release from Donor #727060 [9]: 0.636 nM; 100 nM Rat IL-25-MMH Bound (RU) [10]: 45 RU; Kd [10]: 0.0602 nM; koff [10]: 5.64e-05 s⁻¹; kon [10]: 937000 M⁻¹ s⁻¹; t½ [10]: 3.42 h; IC50 [11]: 0.71 nM; % Maximum blocking of 200 nM antibody [12]: 92% | H4H10871P (antibody, human IgG4, V domains shown, H4H prefix = human IgG4 Fc) VH: QVQLVQSGAEVMKPGASVKVSCKSSDFAFTTYGISWVRQAPGQGLEWMGWISAYNGNTNYEQRFQGRITMTTDTSTTTVYMELRSLRSDDTAVYYCARDPDYCSSNTCSDAFDLWGQGTMVTVSS VL: DIQMTQSPSSLSASVRDRVTITCRASQGITNYLAWYQQKPGKVPKVLIYAASTLQSGVPSRFSGSGSGTEFTLAISSLQPEDVATYFCQQYGSAPWTFGQGTKVEIK
